In PMC3160285, “Fukutin-Related Protein Resides in the Golgi Cisternae of Skeletal Muscle Fibres and Forms Disulfide-Linked Homodimers via an N-Terminal Interaction” (PLoS ONE, 2011):
Where a chain is given by its changes, count along the chain named. Names may count otherwise.

B1: FKRP-373 (C-terminal truncation mutant of FKRP) (domain or fragment, human, UniProt Q9H9S5 1-373, looked up)
chain: MRLTRCQAALAAAITLNLLVLFYVSWLQHQPRNSRARGPRRASAAGPRVTVLVREFEAFDNAVPELVDSFLQQDPAQPVVVAADTLPYPPLALPRIPNVRLALLQPALDRPAAASRPETYVATEFVALVPDGARAEAPGLLERMVEALRAGSARLVAAPVATANPARCLALNVSLREWTARYGAAPAAPRCDALDGDAVVLLRARDLFNLSAPLARPVGTSLFLQTALRGWAVQLLDLTFAAARQPPLATAHARWKAEREGRARRAALLRALGIRLVSWEGGRLEWFGCNKETTRCFGTVVGDTPAYLYEERWTPPCCLRALRETARYVVGVLEAAGVRYWLEGGSLLGAARHGDIIPWDYDVDLGIYLEDVG
notes: fukutin-related protein (FKRP), human; C-terminal truncation, last amino acid 373; source: COS-7, transfected, in lysate (5 mM NEM)
B2: FKRP-282 (C-terminal truncation mutant of FKRP) (domain or fragment, human, UniProt Q9H9S5 1-282, looked up)
chain: MRLTRCQAALAAAITLNLLVLFYVSWLQHQPRNSRARGPRRASAAGPRVTVLVREFEAFDNAVPELVDSFLQQDPAQPVVVAADTLPYPPLALPRIPNVRLALLQPALDRPAAASRPETYVATEFVALVPDGARAEAPGLLERMVEALRAGSARLVAAPVATANPARCLALNVSLREWTARYGAAPAAPRCDALDGDAVVLLRARDLFNLSAPLARPVGTSLFLQTALRGWAVQLLDLTFAAARQPPLATAHARWKAEREGRARRAALLRALGIRLVSWEGG
notes: fukutin-related protein (FKRP), human; C-terminal truncation, last amino acid 282; source: COS-7, transfected, in lysate (5 mM NEM)
B3: FKRP Cys168Ser (natural protein, human, UniProt Q9H9S5 1-495, looked up)
chain: MRLTRCQAALAAAITLNLLVLFYVSWLQHQPRNSRARGPRRASAAGPRVTVLVREFEAFDNAVPELVDSFLQQDPAQPVVVAADTLPYPPLALPRIPNVRLALLQPALDRPAAASRPETYVATEFVALVPDGARAEAPGLLERMVEALRAGSARLVAAPVATANPARSLALNVSLREWTARYGAAPAAPRCDALDGDAVVLLRARDLFNLSAPLARPVGTSLFLQTALRGWAVQLLDLTFAAARQPPLATAHARWKAEREGRARRAALLRALGIRLVSWEGGRLEWFGCNKETTRCFGTVVGDTPAYLYEERWTPPCCLRALRETARYVVGVLEAAGVRYWLEGGSLLGAARHGDIIPWDYDVDLGIYLEDVGNCEQLRGAEAGSVVDERGFVWEKAVEGDFFRVQYSESNHLHVDLWPFYPRNGVMTKDTWLDHRQDVEFPEHFLQPLVPLPFAGFVAQAPNNYRRFLELKFGPGVIENPQYPNPALLSLTGSG
notes: fukutin-related protein (FKRP), human, 495 aa, made from pcDNA3.1-FKRP by site-directed mutagenesis; also called FKRP-C168S; source: COS-7, transfected, in lysate (5 mM NEM)
B4: FKRP Cys191Ser (natural protein, human, UniProt Q9H9S5 1-495, looked up)
chain: B3 chain with S168C, C191S
notes: fukutin-related protein (FKRP), human, 495 aa, made from pcDNA3.1-FKRP by site-directed mutagenesis; also called FKRP-C191S; source: COS-7, transfected, in lysate (5 mM NEM)
B5: FKRP-Asn172Gln (natural protein, human, UniProt Q9H9S5 1-495, looked up)
chain: B3 chain with S168C, N172Q
notes: fukutin-related protein (FKRP), human, 495 aa, made from pcDNA3.1-FKRP by site-directed mutagenesis; source: COS-7, transfected, in lysate (5 mM NEM)
B6: FKRP Cys375Ser (natural protein, human, UniProt Q9H9S5 1-495, looked up)
chain: B3 chain with S168C, C375S
notes: fukutin-related protein (FKRP), human, 495 aa, made from pcDNA3.1-FKRP by site-directed mutagenesis; also called FKRP-C375S; source: COS-7, transfected, in lysate (5 mM NEM)
B7: FKRP-Cys289Ser (natural protein, human, UniProt Q9H9S5 1-495, looked up)
chain: B3 chain with S168C, C289S
notes: fukutin-related protein (FKRP), human, 495 aa, made from pcDNA3.1-FKRP by site-directed mutagenesis; also called FKRP-C289S; source: COS-7, transfected, in lysate (5 mM NEM)
B8: Fukutin-related protein (FKRP), human, wild type, untagged (pcDNA3.1-FKRP) (natural protein, UniProt Q9H9S5 1-495, looked up)
chain: B3 chain with S168C
modifications: N-linked glycans of high mannose and/or hybrid type at Asn172 and Asn209
notes: fukutin-related protein (FKRP), human, 495 aa; Same construct expressed in two cell lines; the assay's format names the cell line; also called hFKRP; full length FKRP; source: COS-7 or BHK-21, transfected (pcDNA3.1-FKRP), in lysate
B9: FKRP Cys296Ser (natural protein, human, UniProt Q9H9S5 1-495, looked up)
chain: B3 chain with S168C, C296S
notes: fukutin-related protein (FKRP), human, 495 aa, made from pcDNA3.1-FKRP by site-directed mutagenesis; also called FKRP-C296S; source: COS-7, transfected, in lysate (5 mM NEM)
B10: FKRP-Asn172Gln/Asn209Gln (natural protein, human, UniProt Q9H9S5 1-495, looked up)
chain: B3 chain with S168C, N172Q, N209Q
notes: fukutin-related protein (FKRP), human, 495 aa, made from pcDNA3.1-FKRP by site-directed mutagenesis; also called double mutant; source: COS-7, transfected, in lysate (5 mM NEM)
B11: FKRP-Asn209Gln (natural protein, human, UniProt Q9H9S5 1-495, looked up)
chain: B3 chain with S168C, N209Q
notes: as for B5
B12: FKRP-157 (C-terminal truncation mutant of FKRP) (domain or fragment, human, UniProt Q9H9S5 1-157, looked up)
chain: MRLTRCQAALAAAITLNLLVLFYVSWLQHQPRNSRARGPRRASAAGPRVTVLVREFEAFDNAVPELVDSFLQQDPAQPVVVAADTLPYPPLALPRIPNVRLALLQPALDRPAAASRPETYVATEFVALVPDGARAEAPGLLERMVEALRAGSARLVA
notes: fukutin-related protein (FKRP), human; source: COS-7, transfected, in lysate (5 mM NEM)

Biological target: the molecule itself
Assay: SDS-PAGE (non-reducing and reducing) with Western blot; cleared COS-7 lysates prepared with 5 mM NEM; untreated or reduced with 330-400 mM DTT at RT for 30 min; 4-12% gel; detection with FKRP207 antibody

**Q.** For B1, which “stoichiometry N” value is on record?
**A.** Its value is 2.

**Q.** Which “stoichiometry N” value does the source give for B2 here?
**A.** The value was 2.

**Q.** Which “stoichiometry N” value does the source give for B3 here?
**A.** The value was 2.

**Q.** With B4 as the molecule, how does the “stoichiometry N” value read?
**A.** The value was 2.

**Q.** B5 was tested. Which “stoichiometry N” value did it give?
**A.** The value was 2.

**Q.** For B6, which “stoichiometry N” value is on record?
**A.** The value was 2.

**Q.** For B7, which “stoichiometry N” value is on record?
**A.** Its value is 2.

**Q.** For B8, which “stoichiometry N” value is on record?
**A.** Its value is 2.

**Q.** B9 was tested. Which “stoichiometry N” value did it give?
**A.** The value was 2.

**Q.** With B10 as the molecule, how does the “stoichiometry N” value read?
**A.** Its value is 2.

**Q.** How did the “stoichiometry N” value turn out when B11 was run?
**A.** The value was 2.

**Q.** For B12, which “stoichiometry N” value is on record?
**A.** Its value is 2.

Biological target: FKRP Cys317Ser/Cys318Ser (human) (UniProt Q9H9S5)
Assay: as above

**Q.** “FKRP Cys317Ser/Cys318Ser (from UniProt Q9H9S5 1-495) (natural protein)” was tested. Which stoichiometry N did it give?
**A.** The stoichiometry N was 2.
